Key:
[1] = target: T1, fusion of maltose binding protein, QRGRSA and the HY4 gene product of Arabidopsis thaliana, Q43125
T1 chain: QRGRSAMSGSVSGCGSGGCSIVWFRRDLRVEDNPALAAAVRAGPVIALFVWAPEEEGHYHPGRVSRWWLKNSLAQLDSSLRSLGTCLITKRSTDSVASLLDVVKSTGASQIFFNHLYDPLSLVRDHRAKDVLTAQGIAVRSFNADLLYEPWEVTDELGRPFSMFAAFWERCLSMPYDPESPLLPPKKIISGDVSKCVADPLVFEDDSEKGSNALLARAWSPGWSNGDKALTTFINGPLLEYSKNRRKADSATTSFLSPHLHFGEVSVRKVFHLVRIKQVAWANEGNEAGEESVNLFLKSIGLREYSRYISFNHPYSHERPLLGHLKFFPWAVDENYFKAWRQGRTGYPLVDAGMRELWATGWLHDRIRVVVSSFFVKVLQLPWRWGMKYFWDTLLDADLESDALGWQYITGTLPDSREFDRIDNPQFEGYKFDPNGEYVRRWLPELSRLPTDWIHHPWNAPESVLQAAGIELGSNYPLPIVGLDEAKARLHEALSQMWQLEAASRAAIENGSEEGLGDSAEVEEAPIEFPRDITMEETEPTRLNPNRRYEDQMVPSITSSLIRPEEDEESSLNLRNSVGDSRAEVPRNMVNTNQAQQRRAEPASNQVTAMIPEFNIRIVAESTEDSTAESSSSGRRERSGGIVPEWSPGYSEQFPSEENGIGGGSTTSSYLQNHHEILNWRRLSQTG

[2] = target: T2, peptide (I), native cleavage sequence from plasminogen
T2 chain: KKSPGRVVGGSVAH

[3] = target: T3, peptide (II) of Table 1, LGGSGQRGRKALE
T3 chain: LGGSGQRGRKALE

[4] = target: T4, peptide (III) of Table 1, LGGSGERARGALE
T4 chain: LGGSGERARGALE

[5] = target: T5, peptide (IV) of Table 1, LGGSGHYGRSGLE
T5 chain: LGGSGHYGRSGLE

[6] = target: T6, peptide (V) of Table 1, YGRS
T6 chain: YGRS

[7] = target: T7, peptide (VI) of Table 1, RGRK
T7 chain: RGRK

[8] = target: T8, peptide (VII) of Table 1, FRGRK
T8 chain: FRGRK

[9] = target: T9, peptide GSGKS
T9 chain: GSGKS

[10] = target: T10, peptide LGGRGRSANAILE
T10 chain: LGGRGRSANAILE

[11] = target: T11, peptide LGGSGRKASLSLE
T11 chain: LGGSGRKASLSLE

[12] = target: T12, peptide LGGSGRNAQVRLE
T12 chain: LGGSGRNAQVRLE

[13] = target: T13, peptide LGGSGRSANAILE
T13 chain: LGGSGRSANAILE

[14] = target: T14, peptide LGGSGRSATRDLE
T14 chain: LGGSGRSATRDLE

[15] = target: T15, peptide LGGYGRSANAILE
T15 chain: LGGYGRSANAILE

[16] = target: T16, peptide LGQRGRSANAILE
T16 chain: LGQRGRSANAILE

[17] = target: T17, peptide SGKS
T17 chain: SGKS

[18] = target: T18, peptide SGRSA
T18 chain: SGRSA

[19] = target: T19, peptide SGRS
T19 chain: SGRS

[20] = target: T2, peptide (I), native cleavage sequence …; test: kinetics of peptide hydrolysis by the enzyme, HPLC, Eadie-Hofstee
[21] = target: T3, peptide (II) of Table 1, LGGSGQRGRKALE; test: as above
[22] = target: T4, peptide (III) of Table 1, LGGSGERARGALE; test: as above
[23] = target: T5, peptide (IV) of Table 1, LGGSGHYGRSGLE; test: as above
[24] = target: T10, peptide LGGRGRSANAILE; test: as above
[25] = target: T11, peptide LGGSGRKASLSLE; test: as above
[26] = target: T12, peptide LGGSGRNAQVRLE; test: as above
[27] = target: T13, peptide LGGSGRSANAILE; test: as above
[28] = target: T14, peptide LGGSGRSATRDLE; test: as above
[29] = target: T15, peptide LGGYGRSANAILE; test: as above
[30] = target: T16, peptide LGQRGRSANAILE; test: as above
[31] = target: T6, peptide (V) of Table 1, YGRS; test: kinetics of peptide hydrolysis by the enzyme, HILIC HPLC, Eadie-Hofstee
[32] = target: T7, peptide (VI) of Table 1, RGRK; test: as above
[33] = target: T8, peptide (VII) of Table 1, FRGRK; test: as above
[34] = target: T9, peptide GSGKS; test: as above
[35] = target: T17, peptide SGKS; test: as above
[36] = target: T18, peptide SGRSA; test: as above
[37] = target: T19, peptide SGRS; test: as above

B1: tissue plasminogen activator (t-PA) (protein)
chain: SYQVICRDEKTQMIYQQHQSWLRPVLRSNRVEYCWCNSGRAQCHSVPVKSCSEPRCFNGGTCQQALYFSDFVCQCPEGFAGKCCEIDTRATCYEDQGISYRGTWSTAESGAECTNWNSSALAQKPYSGRRPDAIRLGLGNHNYCRNPDRDSKPWCYVFKAGKYSSEFCSTPACSEGNSDCYFGNGSAYRGTHSLTESGASCLPWNSMILIGKVYTAQNPSAQALGLGKHNYCRNPDGDAKPWCHVLKNRRLTWEYCDVPSCSTCGLRQYSQPQFRIKGGLFADIASHPWQAAIFAKHRRSPGERFLCGGILISSCWILSAAHCFQERFPPHHLTVILGRTYRVVPGEEEQKFEVEKYIVHKEFDDDTYDNDIALLQLKSDSSRCAQESSVVRTVCLPPADLQLPDWTECELSGYGKHEALSPFYSERLKEAHVRLYPSSRCTSQHLLNRTVTDNMLCAGDTRSGGPQANLHDACQGDSGGPLVCLNDGRMTLVGIISWGLGCGQKDVPGVYTKVTNYLDWIRDNMRP
cleavage of fusion protein, SDS-PAGE [1]: t-PA readily cleaved the fusion protein | kcat [2]: 0.0043 s⁻¹ | kcat/Km [2]: 0.29 M⁻¹ s⁻¹ | kcat [3]: 0.99 s⁻¹ | kcat/Km [3]: 430 M⁻¹ s⁻¹ | kcat [4]: 0.073 s⁻¹ | kcat/Km [4]: 52 M⁻¹ s⁻¹ | kcat [5]: 1.29 s⁻¹ | kcat/Km [5]: 322 M⁻¹ s⁻¹ | kcat [6]: 23.7 s⁻¹ | kcat/Km [6]: 3950 M⁻¹ s⁻¹ | kcat [7]: 15.3 s⁻¹ | kcat/Km [7]: 992 M⁻¹ s⁻¹ | fold more efficient cleavage by t-PA than by u-PA [8]: approximately 74 times more efficiently by t-PA than by u-PA | kcat [8]: 12.2 s⁻¹ | kcat/Km [8]: 1240 M⁻¹ s⁻¹ | kcat [9]: 0.07 s⁻¹ | kcat/Km [9]: 1.6 M⁻¹ s⁻¹ | kcat [10]: 0.85 s⁻¹ | kcat/Km [10]: 350 M⁻¹ s⁻¹ | kcat [11]: 0.168 s⁻¹ | kcat/Km [11]: 33 M⁻¹ s⁻¹ | kcat [12]: 0.255 s⁻¹ | kcat/Km [12]: 36 M⁻¹ s⁻¹ | kcat [13]: 0.305 s⁻¹ | kcat/Km [13]: 75 M⁻¹ s⁻¹ | kcat [14]: 0.068 s⁻¹ | kcat/Km [14]: 45 M⁻¹ s⁻¹ | kcat [15]: 3.29 s⁻¹ | kcat/Km [15]: 1800 M⁻¹ s⁻¹ | kcat [16]: 2.55 s⁻¹ | kcat/Km [16]: 850 M⁻¹ s⁻¹ | fold decrease of catalytic efficiency against peptide (VI) SGRS [17]: by a factor of 49 for t-PA | kcat [17]: 0.19 s⁻¹ | kcat/Km [17]: 6.8 M⁻¹ s⁻¹ | kcat [18]: 2.4 s⁻¹ | kcat/Km [18]: 60 M⁻¹ s⁻¹ | kcat [19]: 5 s⁻¹ | kcat/Km [19]: 330 M⁻¹ s⁻¹ | Km [20]: 15 mM | Km [21]: 2.3 mM | Km [22]: 1.41 mM | Km [23]: 4.01 mM | Km [24]: 2.4 mM | Km [25]: 5.1 mM | Km [26]: 7 mM | Km [27]: 4.08 mM | Km [28]: 1.5 mM | Km [29]: 1.85 mM | Km [30]: 3 mM | Km [31]: 6 mM | Km [32]: 16.6 mM | Km [33]: 9.8 mM | Km [34]: 44 mM | Km [35]: 28 mM | Km [36]: 40 mM | Km [37]: 15 mM

Source: patent US20030186329
